Test results published in paper PMC5042579 (Molecular Biology of the Cell, 2016).
Each block holds one binder with its values, some of them ahead of it.

Experiments:
[1] = target: T1, tau (human 1N4R-tau isoform, 412 amino acids) (human, UniProt P10636-7 1-412); assay: TIRF microscopy of reconstituted dynamic microtubules
[2] = target: T1, tau (human 1N4R-tau isoform, 412 amino …); assay: pull-down
[3] = target: T1, tau (human 1N4R-tau isoform, 412 amino …); assay: other fluorescence titration

- binding result [1]: binds
B1: GFP-EB1-Δ-tail (GFP-EB1 lacking the last 20 amino acid residues) (domain or fragment)
chain: MAVNVYSTSVTSDNLSRHDMLAWINESLQLNLTKIEQLCSGAAYCQFMDMLFPGSIALKKVKFQAKLEHEYIQNFKILQAGFKRMGVDKIIPVDKLVKGKFQDNFEFVQWFKKFFDANYDGKDYDPVAARQGQETAVAPSLVAPALNKPKKPLTSSSAAPQRPISTQRTAAAPKAGPGVVRKNPGVGNGDDEAAELMQQVNVLKLTVEDLEKERDFYFGKLRNIELICQENEGENDPVLQRIVDILYA

- binding result [2]: binds
B2: biotinylated EB1 (mouse end-binding protein 1) (natural protein)
chain: MAVNVYSTSVTSDNLSRHDMLAWINESLQLNLTKIEQLCSGAAYCQFMDMLFPGSIALKKVKFQAKLEHEYIQNFKILQAGFKRMGVDKIIPVDKLVKGKFQDNFEFVQWFKKFFDANYDGKEYDPVAARQGQETAVAPSLVAPALSKPKKPLGSSTAAPQRPIATQRTTAAPKAGPGMVRKNPGVGNGDDEAAELMQQVKVLKLTVEDLEKERDFYFGKLRNIELICQENEGENDPVLQRIVDILYATDEGFVIPDEGGPQEEQEEY
modifications: biotin (EZ-Link NHS-Chromogenic Biotinylation Kit)

- Kd [3]: 1700 ± 1100 nM
B3: EB1 (mouse end-binding protein 1), not labelled (natural protein)
chain: MAVNVYSTSVTSDNLSRHDMLAWINESLQLNLTKIEQLCSGAAYCQFMDMLFPGSIALKKVKFQAKLEHEYIQNFKILQAGFKRMGVDKIIPVDKLVKGKFQDNFEFVQWFKKFFDANYDGKEYDPVAARQGQETAVAPSLVAPALSKPKKPLGSSTAAPQRPIATQRTTAAPKAGPGMVRKNPGVGNGDDEAAELMQQVKVLKLTVEDLEKERDFYFGKLRNIELICQENEGENDPVLQRIVDILYATDEGFVIPDEGGPQEEQEEY
